According to the nanobody polyreactivity screen of Harvey et al. (2022):

Assay: yeast display, Sf9 membrane polyspecificity reagent, FACS + sequencing; frameworks hold sequencing errors
Summary of the method: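 Genes from sorted yeast were amplified by colony PCR, read by MiSeq 2 × 250 sequencing and filtered on CDR length. These cells carried a synthetic nanobody library in Saccharomyces cerevisiae BJ5465 and were sorted by FACS into low and high (top ~1%) gates on anti-HA and streptavidin fluorescence. Polyreactivity is labelled according to the gate of origin.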

Q: Which “polyreactivity (PSR sort gate)” value does the source give for “QDQLVESCGGLVQAGGSLRLSCASSGSTIYIYAMGWSRQAPVKERELVAAITWSGGSTYYADSVKGRFTISRDNAKNTVYLQMNSLNREDTAVYYFAAYLRYYRKEVGYSSMNYWGQGTQVTVSS” here?
A: high polyreactivity

Q: Which “polyreactivity (PSR sort gate)” value does the source give for “QVQLVESGGGLVQAGGSLRLSCAASGRIFTYNTMGWYRQAPGKERELVAAIRTGGSTNYADSVKGRFTISRDNAKNTVYLQMNSLKPEDTAVYYCNTVRHSSSVYWYDYWGQGTQVTVSS” here?
A: low polyreactivity

Q: Which “polyreactivity (PSR sort gate)” value does the source give for “QVQLVESGGGLVQAGGSLRLSCAASGSTIIRNTMGWYRKAPGKERELVAAITRSGGSTFYADSVKGRFTISRDNAKNTVYLQMNSLKPEDTAVYYCAAVRSKLYYYWGQGTQVTVSS” here?
A: high polyreactivity

Q: With “QVQLVESGGGLVQAGGSLRLSCAASGSIFGYYAMGWYRQAPGKEREFVAAITSRVGRTHYADSVKGRFTISRDNAKNTVYLQMNSLKPEDTAVYYCAAEVRQYYRRGYYWGQGTQVTVSS” as the sequence, how does the “polyreactivity (PSR sort gate)” value read?
A: high polyreactivity

Q: For “QVQIVESGGGLVQAGGSLRLSCAASGSTFGGYVMGWYRQAPGKERELVAAIRWRTDSTYYADSVKGRFTISRDNAKNTVYLQMNSLKPEDTAVYYCAAPRGTRVGSHLYYWGQGTQVTVSS”, which “polyreactivity (PSR sort gate)” value is on record?
A: high polyreactivity

Q: For “QVQLVESGGGLVQAGGSLRLSCAASGSTVYTNAMGWYRQAPGKERELVAAISSSGDSTYYADSVKGRFTISRDNAKNTVYLQMNSLKPEDTAVYYCAADKYLSYDFWGQGTQVTVSS”, which “polyreactivity (PSR sort gate)” value is on record?
A: low polyreactivity

Q: With “QVPLVESGGGLVQAGGSLRLSCAASGSTFYTYAMGWYRQAPGKERELVATISRGGGRTYYADSVKGRFTISRDNAKYTVYLQMISLKPEDTAVYYCAARLYSSSYNSEQYYYWGQGTQVTVSS” as the sequence, how does the “polyreactivity (PSR sort gate)” value read?
A: high polyreactivity

Q: With “QVQLVESGGGLVQAGGSLRLSCAASGYIFKYNTMGWYRQAPGKERELVAAISTGGNTYYADSVKGRFTISRDNAKNTVYLQMNSLKPEDTAVYYCAALSGAHEHFVEYDYWGQGTQVTVSS” as the sequence, how does the “polyreactivity (PSR sort gate)” value read?
A: low polyreactivity

Q: For “QVQLVESGGGLVQAGGSLRLSCAASGSIFGDYAMGWSSQAPGKEGELVAAISRGDGTYYADSVKGRFTISRDNAKNTVYLQMNSLKPEDTAVYYCNAGGRYHAPSGDFWGQGSQVTVSS”, which “polyreactivity (PSR sort gate)” value is on record?
A: low polyreactivity

Q: For “QVQLVESGGGLVQAGGSLRLSCAASGSTFPRYAMGWYRQAPGKEREFVAVIWSGGSTYYADSVKGRFTISRDNAKNTVYLQMNSLKPEDTAVYYCAAEYHTLSKYSGYATHDYWGQGTQVTVSS”, which “polyreactivity (PSR sort gate)” value is on record?
A: low polyreactivity

Q: For “QVQLVESGGGLVQAGGSLRLSCAASGRIFGRYAMGWYRQAPGKERELVATITYTGGSTYYADSVKGRFTISRDNAKNTVYLQMNSLKPEDTAVYSCNAVKPVSRTYDSSYYWGPGTQVTVSS”, which “polyreactivity (PSR sort gate)” value is on record?
A: high polyreactivity

Q: With “QVQLVESGGGLVQAGGSLRLSCAASGLTFYINDKGWYRQAPWKERELVAAINYSGGSTYYADSVKGRFTISRHNAKNTVYLQMNSLKPEDTAVYYCAADVSRWWGQHRYYSWGQGTQVTVSS” as the sequence, how does the “polyreactivity (PSR sort gate)” value read?
A: high polyreactivity

Q: With “QVQLVESGAGLVQAGGSLRLSCAASGSIFRKYGMGLYRQAPGKDRELVATITSSGGSTYYADSVKGRFRISRDNAKNTVYVQMNSLIPEDTAVYYCAARWTYSFHWFSRYDYWGPGTQVTVSS” as the sequence, how does the “polyreactivity (PSR sort gate)” value read?
A: high polyreactivity

Q: For “QVQLVESGGGLVQAGGSLRLSCAASGSTFGSYAMGWYRQAPGKERELVAAITGSGGRTYYADSVKGRFTISRDNAKNRVYLQLNSLKPEDTAVYYCAKVPDYRFEYWGQGTQVTVSS”, which “polyreactivity (PSR sort gate)” value is on record?
A: high polyreactivity

Q: For “QVQLVESGGGLVQAGGSLRLSCAASGSTFFTNVKGWYRQAPGKERELVAVIRWRGSDTYYADSVKGRFTISRDNAKNTVYLQMKSLKPEDTAFYYCNAKESFYPTTGEQGYSYAYWGQGTQLTVSS”, which “polyreactivity (PSR sort gate)” value is on record?
A: low polyreactivity

Q: Which “polyreactivity (PSR sort gate)” value does the source give for “QVQLVESGGCLVQAGGSLRLSCAASGFIFRQYAMGWYRQAPGKERELVAAISTGGGRTYYADSVKGRFTISRDNAKNTVYLQMNSLKPEDTAVYYCAAGYPYSYRDYYYWGQGTQVTVSS” here?
A: high polyreactivity

Q: With “QDQLVESVGGLVQAGGSLRLSCAASGSTFTSNAMGWYRQAPGKERELVAVITIGGSTNYADSVKGRFTISLDNAKNSVYLQMNSLKPEDTAVYYCAAELFPLQHFWGAYATRRYDYWGQGTQVTVSS” as the sequence, how does the “polyreactivity (PSR sort gate)” value read?
A: low polyreactivity

Q: For “QVQLVESGGGLVQAGGSLRLSCAASGSTFHWYVMGWYRQAPAKERELVAAITWSGGSTYYADSVKGRFTISRDNAKNTVYLQMNSLKPEDTAVYYCNAVFWIWNAGYDYWGQGTQVTVSS”, which “polyreactivity (PSR sort gate)” value is on record?
A: low polyreactivity

Q: For “QVQLVESGVGLVQAGGSLRLSCAASGSIFFKYAMGWYRQAPGKERELVAGITSTGRTYYADSVKGRFTISRDNAKNTVYLQMNSLKPEDTAVYYCNARTLPTYYRRYDYWGQGTQVTVSS”, which “polyreactivity (PSR sort gate)” value is on record?
A: high polyreactivity

Q: For “QDHLVESAAGLVQAGGRLRLSCAASGSTLYDYAMVWSRKAPGKDRELVAAIRTGGSTYYADSVKGRFTISRDNAKNTVYLQMNSLKTEDTAVYYCAADHGYQYGYWGQGTQVTVSS”, which “polyreactivity (PSR sort gate)” value is on record?
A: low polyreactivity

Q: With “QVQLVESGGGLVQAGGSLRLICAASGSNFNPYAMGWYRQAPGKERELVAAINSGDSTNYADSVKGRFSISRDNAKNTLYLQMNSLKPEDTAVFYCANRYRRRYNYWGQGTQETVSS” as the sequence, how does the “polyreactivity (PSR sort gate)” value read?
A: high polyreactivity

Q: Which “polyreactivity (PSR sort gate)” value does the source give for “QVQLVESGGGLVQSGGSLRLSCAASGSTFSINPMGWYRQAPGKERELFAAITWRGVRTYYADSVKGRFTISRDNAKNTVYFQMNSLKPEDTAVYYCAADVVVAGHPGFDYWGQGTQVTVSS” here?
A: high polyreactivity

Q: With “QVQLVESGGGLVQAAGSLRLSCAASGGTFGWYAKGWYRLAHGKEREFLPAIRYSDGNTYYADSVKRRFTISRDNAKNSVYLQMNSLKPEDSAVYYCAADYVYAYIDGEVAEFYYWGPGTQVTVSS” as the sequence, how does the “polyreactivity (PSR sort gate)” value read?
A: high polyreactivity

Q: For “QVQLVESGGGLVQAGGSLRLSCAASGNTFRYYAMGWYRQAPGKERDLVAAISESGGRTYYADSVKGRFTISRDNAKKTVYLQMNSLKPEDTAFYYCAASRWARTWWYGYNYWGQGTQVTVSS”, which “polyreactivity (PSR sort gate)” value is on record?
A: high polyreactivity

Q: With “QVQLVESGGGLFQAGGSLRLSCAASGSILTHYAMGWYRQAPGKERELVAGNTSGGTTNYADSVKGRFTISRDNAKNSVYLQMNSLKPEDTAVYYCNADVWICQRFETGYDFDYWGQGTQVTVSS” as the sequence, how does the “polyreactivity (PSR sort gate)” value read?
A: low polyreactivity

Q: Which “polyreactivity (PSR sort gate)” value does the source give for “QDQLVESGGRLVQAGGSLRLSCAASGFILSTYAMGWYRQAPGKERELVAAISSSGTSTYYADSVKGRFTISRDNAKNTVYLQMNSLKPEDTAVYYCARVSKRTWSGYYYWGQGTQVTVST” here?
A: high polyreactivity

Q: With “QVQLVESGGGLVQAGGSLRLSCAASGSIFRFYVMGWYRQAPGKEREMVAAISIGGSTNYADSVKGRFTISLDNAKNTVFLQMNSLKPEDTAVYYCAADYWYGAGMPHGTEFDYWGQGTQVTVSS” as the sequence, how does the “polyreactivity (PSR sort gate)” value read?
A: low polyreactivity

Q: For “QVQLVESGGGLVQAGGSLRLSCAASGSIFRYYAMGWYRQAPGKERELVATISWRGGRTNYADSVKGRFTISRDNAKNTVYLQMNSLKPEDTAVYYCAADPVRRPWGVVGGDYWGQGTQVTVSS”, which “polyreactivity (PSR sort gate)” value is on record?
A: high polyreactivity

Q: With “QVQLVESGGGLVQAGGSLRLSCAASGFTFVRYTMGWYRQAPGKERELVAAITASGDRTYYADSVKGRFTISRDNAKNTVYLQMNSLKPEDTAVYYCAARVWRTVTRSKYGYWGQGTQVTVSS” as the sequence, how does the “polyreactivity (PSR sort gate)” value read?
A: high polyreactivity

Q: For “QVQLVESGGGLVQAGGSLRLSCAASGSTFSAYTMGWDRQAPGKERELVAAIRFDGGRTYYADSVKGRFTISRDNAKNTVYLQMNSLKPEDTAVYYCPAWQSYSYDYWGQGTQLTVSS”, which “polyreactivity (PSR sort gate)” value is on record?
A: high polyreactivity

Q: With “QVQLVESGGGLVQAGGSLRLSSAASGSIFAWYGMGWYRQAPGKERELVAAISTAGSTNYADSVKGRFTISRDNAKNTVYLQMNSLKPEDTAVYYCAKKSSWYYPERFDYWGQGTQVTVSS” as the sequence, how does the “polyreactivity (PSR sort gate)” value read?
A: low polyreactivity
